In patent US10487121B2, “D-peptide inhibitors of HIV entry and methods of use” (priority 2016, dated 2019):
In brackets after ≈: the same amount, converted by molar mass. Numbered stars: 1 amine (or outer) side, 2 acyl side, 3 side chain; on linkers, the order of the positions; unused ones are H or OH. Bridge positions count the residues as written; N and C are the ends. Square brackets hold non-standard residues; d marks the D form. I, II: the chains in the order shown. X1 = CC(C)CCC[C@@H](C)[C@H]1CC[C@H]2[C@@H]3CC=C4C[C@@H](OC(=O)NCCOCCOCCOCCOCCC(=O)NCCOCCOCCOCCOCCOCCOCCOCCOCCOCCOCCOCCOCCOCCOCCOCCOCCOCCOCCOCCOCCOCCOCCOCCOCCOCCOCCOCCOCCC(=O)NC(CCC(=O)[*:1])(CCC(=O)[*:2])CCC(=O)[*:3])CC[C@]4(C)[C@H]3CC[C@]12C; PEG4 = NCCOCCOCCOCCOCCC(=O)O

Columns and labels:
[1] = Rat pharmacokinetics of cholesterol conjugates, Calvert study (Table 4 protocol); conditions: for bioavailability: male
Protocol: For PIE12 monomer conjugates, in-life studies were performed by Invitek (Hayward, Calif.). Trimeric conjugate in-life studies were performed at Navigen (Salt Lake City, Utah). […] At each timepoint, plasma was obtained using lithium heparin. […] Plasma samples were stored at −80° C. and shipped prior to bioanalysis.
The column temperature was maintained at 70° C.
Fifty microliter aliquots of plasma for each time point was precipitated with 2.5 volumes of ice-cold acetonitrile containing 2% trifluoroacetic acid (v/v) and 370 nM CPT12 as internal standard. […] The column temperature was maintained at 70° C.
CPT31 in Rat Plasma-Calvert Study
Fifty microliter aliquots of plasma for each time point was precipitated with 5 volumes of ice-cold acetonitrile containing 1% formic acid (v/v). No internal standard was used. […] The column temperature was maintained at 40° C.
All of the PK data presented in Table 3 was generated using the same animal protocols and similar bioanalytical methods. Different animal protocols and improved bioanalytical methods were used to generate the data in Table 4 (all PK fitiing was performed using WinNonlin software).

[2] = Non-human primate pharmacokinetics; assay type: in vivo, cynomolgus monkeys
Protocol: Non-Human Primate Pharmacokinetics
In-life was performed by Calvert Laboratories (Scott Township, Pa.). […] Upon IV dosing, 1 ml blood samples were collected at 0.083, 0.167, 0.25, 0.5, 1, 2, 4, 8, 16 and 24 h post-dose into chilled tubes containing K2EDTA, mixed by inversion, and centrifuged (3000 rpm, 4° C., 15 min) to isolate plasma. Plasma was stored at −80° C. until bioanalysis.
Following a 13-day washout period, study animals were administered a single subcutaneous dose of CPT31 (10 mg/ml in 50 mM HEPES, pH 7.4) into the loose skin of the back between the shoulder blades at a dose of 3 mg/kg. Plasma samples were collected at pre-dose, 0.25, 0.5, 1, 2, 4, 8, 16, 24 and 48 hours post-dose. Collected blood samples were treated as described above. The pre-dose sample confirmed drug levels were below the lower limit of quantification (5.00 nM).
CPT31 in Monkey Plasma-Calvert Study
The internal standard, CPT31-IS was synthesized with an additional glycine on each PIE12-2 monomer (three in total), increasing the molecular mass by 171.1 Da. Plasma samples (200 μl) were spiked with CPT31-IS to a concentration of either 60 or 150 nM, then precipitated in 2% NH4OH in acetonitrile (500 μl). Following centrifugation, the supernatant was applied to a strong anion exchange solid-phase extraction 96-well plate (SOLAμ SAX, 2 mg/ml 96-well plate). The anion exchange plate was first conditioned with 400 μl of 2% NH4OH in methanol, followed by 400 μl of 2% NH4OH in water. The precipitated supernatant (500 μl) was then loaded into each well, followed by washing with 500 μl of 2% NH4OH in water, then 500 μl of methanol. Sample was eluted using two 50 μl aliquots of 2% formic acid in methanol.
LC-MS analysis was conducted using an Agilent Infinity 1290 HPLC system paired to an Agilent 6450A Q-TOF mass spectrometer equipped with a Dual Jet Spray ESI source. […] Samples were analyzed against a standard curve of CPT31 from 5.00-2,000 nM.

[3] = Solubility in standard aqueous buffers
[4] = test system: JRFL (R5) luciferase reporter pseudovirions on HOS-CD4-CCR5; test: Pseudovirion entry assay, JRFL; assay type: cell-based, HIV-1
Protocol: Pseudovirion assays were performed as previously described (Welch et al., 2010, J. Virol. 84:11235-44; Welch et al., 2007, Proc. Natl. Acad. Sci. 104:16827-16833, each of which is incorporated herein by reference in its entirety). Briefly, a six-point dilution series of each inhibitor was generated in quadruplicate on HOS-CD4-CXCR4 (for HXB2) or HOS-CD4-CCR5 (for JRFL) monolayers in 96 well plates, after which HXB2 (X4) or JRFL (R5) luciferase reporter pseudovirions were added. After 2 days, cells were lysed using GloLysis buffer (Promega) and BrightGlo luciferase substrate (Promega) was added. Luminescence was read on a PolarStar Optima (BMG) plate reader and normalized to uninhibited controls. Inhibition curves were plotted and fit to a standard IC50 equation for normalized data [(1−c/(IC50+c)], weighting each point by its standard error using KaleidaGraph (Synergy Software). Reported IC50 values are the average of at least two independent quadruplicate assays.

[5] = Rodent pharmacokinetics of PIE12-trimer and conjugates (Table 3 protocol); assay type: in vivo, Sprague Dawley rats; conditions: rats
Protocol: At each timepoint, plasma was obtained using lithium heparin.
Samples were spiked with an internal standard then precipitated with two volumes of 98% acetonitrile/2% Formic acid. Supernatants were analyzed by LC/MS/MS using an Agilent HPLC system (Waters X-Bridge BEH C18 column) paired to an AB Sciex API 3000 triple-quad mass spectrometer using MRM methods. Lipid conjugates required lower source temperatures (300° C. vs 500° C.) for improved reproducibility.

HSA = HSA (Homo sapiens, UniProt P02768); conditions: cited from earlier work
Chain of HSA (P02768 25-609): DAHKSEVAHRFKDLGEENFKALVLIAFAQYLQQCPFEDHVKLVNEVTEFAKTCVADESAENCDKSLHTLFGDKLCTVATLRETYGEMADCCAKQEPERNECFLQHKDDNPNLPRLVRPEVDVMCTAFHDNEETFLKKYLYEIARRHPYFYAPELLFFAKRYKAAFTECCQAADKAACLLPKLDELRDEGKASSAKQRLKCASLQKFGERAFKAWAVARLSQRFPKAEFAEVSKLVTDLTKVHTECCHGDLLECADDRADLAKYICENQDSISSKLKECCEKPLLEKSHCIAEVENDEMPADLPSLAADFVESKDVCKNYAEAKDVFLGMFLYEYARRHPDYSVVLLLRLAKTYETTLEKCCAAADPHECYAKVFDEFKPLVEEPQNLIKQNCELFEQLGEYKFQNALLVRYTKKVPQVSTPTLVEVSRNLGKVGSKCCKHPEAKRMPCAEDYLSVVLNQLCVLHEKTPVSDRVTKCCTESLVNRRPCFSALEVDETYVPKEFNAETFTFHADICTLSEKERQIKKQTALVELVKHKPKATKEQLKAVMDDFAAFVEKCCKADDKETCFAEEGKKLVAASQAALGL

[6] = humans; cited from earlier work
[7] = rats, IV, 1.0 mg/kg, plasma, median, updated protocols
[8] = rats, SC, 1.0 mg/kg, plasma, median, updated protocols
[9] = rat, in vivo, IV, 1.0 mg/kg, plasma, median
[10] = rat, in vivo, SC, 1.0 mg/kg, plasma, median

Q: For “I: Ac-[dH][dP][dC][dD][dY][dP][dE][dW][dQ][dW][dL][dC][dE][dL]G[PEG4][dK]-NH2 / II: Ac-[dH][dP][dC][dD][dY][dP][dE][dW][dQ][dW][dL][dC][dE][dL]G[PEG4][dK]-NH2 / III: Ac-[dH][dP][dC][dD][dY][dP][dE][dW][dQ][dW][dL][dC][dE][dL]G[PEG4][dK]-NH2 (disulfide I:3-I:12, II:3-II:12, III:3-III:12; linker I:17-II:17-III:17 via X1) [CPT31]”, which bioavailability ([1]; rat, in vivo, sc, 1 mg/kg) is on record?
A: 55%

Q: And the half-life ([1]; rat, in vivo, iv, 1 mg/kg)?
A: 3.25 h

Q: And the half-life ([1]; rat, in vivo, sc)?
A: 5.4 h

Q: What about the half-life ([2]; cynomolgus monkey, in vivo, non-human primates, SC, read-out: subcutaneous half-life (converted)) of the same compound?
A: 18 h

Q: And the bioavailability ([2]; cynomolgus monkey, male cynomolgus monkeys, SC, 3.0 mg/kg, plasma, median)?
A: 80.4%

Q: What about the adverse events ([2]; cynomolgus monkeys, IV 1 mg/kg then SC 3 mg/kg) of the same compound?
A: no adverse events were observed

Q: And the solubility [3]?
A: ~40 mg/mL

Q: For “CPT24-5kD: includes 5 kDa of linear polydisperse PEG between PIE12-trimer and thiocholesterol”, which “antiviral potency, in words” value [4] is on record?
A: comparable to CPT24

Q: And the “prolonged half-life compared to CPT24” value ([1]; rats, IV)?
A: 3.5 fold

Q: What about the “AUC(0-inf)” value [1, 7] of the same compound?
A: 4.578 µM·h

Q: And the C0 [1, 7]?
A: 1100 nM

Q: And the “Cl (obs)” value [1, 7]?
A: 0.243 mL/min/kg

Q: And the T1/2 [1, 7]?
A: 5.62 h

Q: And the “Vz (obs)” value [1, 7]?
A: 0.118 L/kg

Q: What about the “prolonged half-life compared to CPT24” value ([1]; rats, SC) of the same compound?
A: 1.8 fold

Q: And the “AUC(0-inf)” value [1, 8]?
A: 1.557 µM·h

Q: What about the Cmax [1, 8] of the same compound?
A: 89 nM

Q: What about the T1/2 [1, 8] of the same compound?
A: 7.21 h

Q: For `CC(=O)N[C@H](Cc1c[nH]cn1)C(=O)N1CCC[C@@H]1C(=O)N[C@@H]1CSSC[C@H](C(=O)N[C@H](CCC(=O)O)C(=O)N[C@H](CC(C)C)C(=O)NCC(=O)N[C@H](CCCCNC(=O)CCOCCOCCOCCOCCNC(=O)CCOCC(COCCC(=O)NCCOCCOCCOCCOCCC(=O)NCCCC[C@@H](NC(=O)CNC(=O)[C@@H](CC(C)C)NC(=O)[C@@H](CCC(=O)O)NC(=O)[C@H]2CSSC[C@@H](NC(=O)[C@H]3CCCN3C(=O)[C@@H](Cc3c[nH]cn3)NC(C)=O)C(=O)N[C@H](CC(=O)O)C(=O)N[C@H](Cc3ccc(O)cc3)C(=O)N3CCC[C@@H]3C(=O)N[C@H](CCC(=O)O)C(=O)N[C@H](Cc3c[nH]c4ccccc34)C(=O)N[C@H](CCC(N)=O)C(=O)N[C@H](Cc3c[nH]c4ccccc34)C(=O)N[C@H](CC(C)C)C(=O)N2)C(N)=O)(COCCC(=O)NCCOCCOCCOCCOCCC(=O)NCCCC[C@@H](NC(=O)CNC(=O)[C@@H](CC(C)C)NC(=O)[C@@H](CCC(=O)O)NC(=O)[C@H]2CSSC[C@@H](NC(=O)[C@H]3CCCN3C(=O)[C@@H](Cc3c[nH]cn3)NC(C)=O)C(=O)N[C@H](CC(=O)O)C(=O)N[C@H](Cc3ccc(O)cc3)C(=O)N3CCC[C@@H]3C(=O)N[C@H](CCC(=O)O)C(=O)N[C@H](Cc3c[nH]c4ccccc34)C(=O)N[C@H](CCC(N)=O)C(=O)N[C@H](Cc3c[nH]c4ccccc34)C(=O)N[C@H](CC(C)C)C(=O)N2)C(N)=O)NC(=O)CCOCCOCCOCCOCCOCCOCCOCCOCCOCCOCCOCCOCCOCCOCCOCCOCCOCCOCCOCCOCCOCCOCCOCCOCCNC(=O)CCN2C(=O)CC(S[C@H]3CC[C@@]4(C)C(=CC[C@H]5[C@@H]6CC[C@H]([C@H](C)CCCC(C)C)[C@@]6(C)CC[C@@H]54)C3)C2=O)C(N)=O)NC(=O)[C@@H](CC(C)C)NC(=O)[C@@H](Cc2c[nH]c3ccccc23)NC(=O)[C@@H](CCC(N)=O)NC(=O)[C@@H](Cc2c[nH]c3ccccc23)NC(=O)[C@@H](CCC(=O)O)NC(=O)[C@H]2CCCN2C(=O)[C@@H](Cc2ccc(O)cc2)NC(=O)[C@@H](CC(=O)O)NC1=O` (some centres unmarked) [CPT24], which bioavailability ([5]; Sprague Dawley, rat, SC, 1.0 mg/kg, plasma, median) is on record?
A: 73%

Q: What about the AUC(0-inf) [5, 9] of the same compound?
A: 2.39 µM·h

Q: What about the C0 [5, 9] of the same compound?
A: 1110 nM

Q: What about the clearance ([5]; rat, in vivo, IV, 1.0 mg/kg, plasma, median, read-out: Cl (obs) (converted)) of the same compound?
A: 0.783 mL/min/kg

Q: What about the half-life ([5]; rat, in vivo, IV, 1.0 mg/kg, plasma, median, read-out: T1/2 (converted)) of the same compound?
A: 1.77 h

Q: What about the Vd ([5]; rat, in vivo, IV, 1.0 mg/kg, plasma, median, read-out: Vz (obs)) of the same compound?
A: 0.13 L/kg

Q: What about the half-life ([5]; rat, in vivo, IV, read-out: IV half-life (converted)) of the same compound?
A: 1.8 h

Q: And the AUC(0-inf) [5, 10]?
A: 1.75 µM·h

Q: And the Cmax [5, 10]?
A: 304 nM

Q: What about the Tmax [5, 10] of the same compound?
A: 4 h

Q: And the half-life ([5]; rat, in vivo, SC, 1.0 mg/kg, plasma, median, read-out: T1/2 (converted))?
A: 2.71 h

Q: And the half-life ([5]; rat, in vivo, SC, read-out: SC half-life (converted))?
A: 2.7 h

Q: What about the “increase of IV half-life vs PIE12-trimer” value ([5]; IV) of the same compound?
A: > 3 fold

Q: What about the “reduction of clearance vs PIE12-trimer” value ([5]; IV) of the same compound?
A: ~18 fold

Q: What about the “extension of SC (apparent) half-life vs PIE12-trimer” value ([5]; SC, terminal phase elimination) of the same compound?
A: > 3 fold

Q: What about the bioavailability ([1]; rat, in vivo, sc, 1 mg/kg) of the same compound?
A: 51.4%

Q: What about the AUC(0-inf) ([1]; rat, in vivo, iv, 1 mg/kg) of the same compound?
A: 4.66 µM·h

Q: What about the C0 ([1]; rat, in vivo, iv, 1 mg/kg) of the same compound?
A: 4530 nM

Q: And the Vd ([1]; rat, in vivo, iv, 1 mg/kg)?
A: 0.057 L/kg

Q: And the half-life ([1]; rat, in vivo, iv, 1 mg/kg)?
A: 1.62 h

Q: What about the half-life ([1]; rat, in vivo, sc) of the same compound?
A: 3.8 h

Q: And the AUC(0-inf) ([1]; rat, in vivo, sc, 1 mg/kg)?
A: 2.39 µM·h

Q: And the Cmax ([1]; rat, in vivo, sc, 1 mg/kg)?
A: 395 nM

Q: And the Tmax ([1]; rat, in vivo, sc, 1 mg/kg)?
A: 2 h

Q: What about the half-life ([1]; rat, in vivo, sc, 1 mg/kg) of the same compound?
A: 3.88 h

Q: What about the F [1, 8] of the same compound?
A: 51%

Q: And the solubility [3]?
A: ~40 mg/mL (≈ 4.53 mM)

Q: Which “HSA binding, in words” value (HSA) does the source give for enfuvirtide here?
A: highly HSA bound

Q: And the “volume of distribution, in words” value [6]?
A: reduced volume of distribution
